Consider eight variants from IntAct's records for PubMed 31515488.

The chains are these.
B1: Transmembrane protein 79 (Homo sapiens), Q9BSE2 (parent)
chain: MTEQETLALLEVKRSDSPEKSSPQALVPNGRQPEGEGGAESPGAESLRVGSSAGSPTAIEGAEDGLDSTVSEAATLPWGTGPQPSAPFPDPPGWRDIEPEPPESEPLTKLEELPEDDANLLPEKAARAFVPIDLQCIERQPQEDLIVRCEAGEGECRTFMPPRVTHPDPTERKWAEAVVRPPGCSCGGCGSCGDREWLRAVASVGAALILFPCLLYGAYAFLPFDVPRLPTMSSRLIYTLRCGVFATFPIVLGILVYGLSLLCFSALRPFGEPRREVEIHRRYVAQSVQLFILYFFNLAVLSTYLPQDTLKLLPLLTGLFAVSRLIYWLTFAVGRSFRGFGYGLTFLPLLSMLMWNLYYMFVVEPERMLTATESRLDYPDHARSASDYRPRPWG
B2: Protein FAM9B (Homo sapiens), Q8IZU0 (parent)
chain: MAAWGKKHAGKDPVRDECEERNRFTETREEDVTDEHGEREPFAETDEHTGANTKKPEDTAEDLTAKRKRMKMDKTCSKTKNKSKHALRKKQLKRQKRDYIHSLKLLNVLEEYITDEQKEEEEEEGEEEELIRIFQEQQKKWQQYRSVRRERLKEMKLLRDQFVKALEDFEDLCDRVFSDEDSELDN
partner: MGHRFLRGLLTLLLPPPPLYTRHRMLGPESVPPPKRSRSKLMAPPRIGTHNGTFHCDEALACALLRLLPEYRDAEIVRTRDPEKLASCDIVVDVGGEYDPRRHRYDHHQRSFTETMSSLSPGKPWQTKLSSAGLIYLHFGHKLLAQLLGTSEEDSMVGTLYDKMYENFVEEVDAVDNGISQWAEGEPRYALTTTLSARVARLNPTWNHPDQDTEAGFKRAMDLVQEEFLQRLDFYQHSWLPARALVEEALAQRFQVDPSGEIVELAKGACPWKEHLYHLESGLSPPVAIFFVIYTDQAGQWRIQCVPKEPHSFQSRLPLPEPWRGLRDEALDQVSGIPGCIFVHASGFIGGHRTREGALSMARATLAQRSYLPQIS
B3: Protein dispatched homolog 1 (Homo sapiens), Q96F81 (parent)
chain: MAMSNGNNDFVVLSNSSIATSAANPSPLTPCDGDHAAQQLTPKEATRTKVSPNGCLQLNGTVKSSFLPLDNQRMPQMLPQCCHPCPYHHPLTSHSSHQECHPEAGPAAPSALASCCMQPHSEYSASLCPNHSPVYQTTCCLQPSPSFCLHHPWPDHFQHQPVQQHIANIRPSRPFKLPKSYAALIADWPVVVLGMCTMFIVVCALVGVLVPELPDFSDPLLGFEPRGTAIGQRLVTWNNMVKNTGYKATLANYPFKYADEQAKSHRDDRWSDDHYEREKREVDWNFHKDSFFCDVPSDRYSRVVFTSSGGETLWNLPAIKSMCNVDNSRIRSHPQFGDLCQRTTAASCCPSWTLGNYIAILNNRSSCQKIVERDVSHTLKLLRTCAKHYQNGTLGPDCWDMAARRKDQLKCTNVPRKCTKYNAVYQILHYLVDKDFMTPKTADYATPALKYSMLFSPTEKGESMMNIYLDNFENWNSSDGVTTITGIEFGIKHSLFQDYLLMDTVYPAIAIVIVLLVMCVYTKSMFITLMTMFAIISSLIVSYFLYRVVFHFEFFPFMNLTALIILVGIGADDAFVLCDVWNYTKFDKPHAETSETVSITLQHAALSMFVTSFTTAAAFYANYVSNITAIRCFGVYAGTAILVNYVLMVTWLPAVVVLHERYLLNIFTCFKKPQQQIYDNKSCWTVACQKCHKVLFAISEASRIFFEKVLPCIVIKFRYLWLFWFLALTVGGAYIVCINPKMKLPSLELSEFQVFRSSHPFERYDAEYKKLFMFERVHHGEELHMPITVIWGVSPEDNGNPLNPKSKGKLTLDSSFNIASPASQAWILHFCQKLRNQTFFYQTDEQDFTSCFIETFKQWMENQDCDEPALYPCCSHWSFPYKQEIFELCIKRAIMELERSTGYHLDSKTPGPRFDINDTIRAVVLEFQSTYLFTLAYEKMHQFYKEVDSWISSELSSAPEGLSNGWFVSNLEFYDLQDSLSDGTLIAMGLSVAVAFSVMLLTTWNIIISLYAIISIAGTIFVTVGSLVLLGWELNVLESVTISVAVGLSVDFAVHYGVAYRLAPDPDREGKVIFSLSRVGSAMAMAALTTFVAGAMMMPSTVLAYTQLGTFMMLIMCISWAFATFFFQCMCRCLGPQGTCGQIPLPKKLQCSAFSHALSTSPSDKGQSKTHTINAYHLDPRGPKSELEHEFYELEPLASHSCTAPEKTTYEETHICSEFFNSQAKNLGMPVHAAYNSELSKSTESDAGSALLQPPLEQHTVCHFFSLNQRCSCPDAYKHLNYGPHSCQQMGDCLCHQCSPTTSSFVQIQNGVAPLKATHQAVEGFVHPITHIHHCPCLQGRVKPAGMQNSLPRNFFLHPVQHIQAQEKIGKTNVHSLQRSIEEHLPKMAEPSSFVCRSTGSLLKTCCDPENKQRELCKNRDVSNLESSGGTENKAGGKVELSLSQTDASVNSEHFNQNEPKVLFNHLMGEAGCRSCPNNSQSCGRIVRVKCNSVDCQMPNMEANVPAVLTHSELSGESLLIKTL
partner: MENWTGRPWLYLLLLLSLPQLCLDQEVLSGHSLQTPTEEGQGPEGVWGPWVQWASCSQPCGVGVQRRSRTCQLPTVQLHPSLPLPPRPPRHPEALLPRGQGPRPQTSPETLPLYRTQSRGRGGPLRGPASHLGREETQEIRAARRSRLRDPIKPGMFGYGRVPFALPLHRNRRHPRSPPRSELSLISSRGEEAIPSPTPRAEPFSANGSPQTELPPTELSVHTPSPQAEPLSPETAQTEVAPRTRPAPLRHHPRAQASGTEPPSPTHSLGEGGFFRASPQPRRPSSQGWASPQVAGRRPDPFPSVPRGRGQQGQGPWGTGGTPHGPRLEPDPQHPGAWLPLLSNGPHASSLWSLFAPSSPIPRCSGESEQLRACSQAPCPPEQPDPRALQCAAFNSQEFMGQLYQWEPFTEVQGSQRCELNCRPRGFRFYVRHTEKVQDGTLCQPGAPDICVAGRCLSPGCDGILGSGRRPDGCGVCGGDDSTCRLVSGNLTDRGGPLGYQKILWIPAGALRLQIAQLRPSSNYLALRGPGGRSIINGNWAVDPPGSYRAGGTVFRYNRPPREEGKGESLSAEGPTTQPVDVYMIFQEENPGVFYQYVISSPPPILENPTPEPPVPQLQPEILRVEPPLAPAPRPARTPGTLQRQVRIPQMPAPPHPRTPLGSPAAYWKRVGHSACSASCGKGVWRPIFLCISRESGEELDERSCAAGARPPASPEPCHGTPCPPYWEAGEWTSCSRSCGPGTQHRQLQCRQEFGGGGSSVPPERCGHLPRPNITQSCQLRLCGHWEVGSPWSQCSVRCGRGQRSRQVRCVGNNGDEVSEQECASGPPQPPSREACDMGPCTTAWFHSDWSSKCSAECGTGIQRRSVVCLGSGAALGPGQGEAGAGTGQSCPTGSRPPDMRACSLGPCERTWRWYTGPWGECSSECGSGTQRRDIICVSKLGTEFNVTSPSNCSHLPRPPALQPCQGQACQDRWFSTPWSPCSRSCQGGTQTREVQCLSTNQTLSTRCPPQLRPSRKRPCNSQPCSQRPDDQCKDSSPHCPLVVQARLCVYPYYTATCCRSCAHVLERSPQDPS
B4: Tektin-4 (Homo sapiens), Q8WW24 (parent)
chain: MAQTVPPCELPCKEYDVARNTGAYTSSGLATASFRTSKYLLEEWFQNCYARYHQAFADRDQSERQRHESQQLATETQALAQRTQQDSTRTVGERLQDTHSWKSELQREMEALAAETNLLLAQKQRLERALDATEVPFSITTDNLQCRERREHPNLVRDHVETELLKEAELIRNIQELLKRTIMQAVSQIRLNREHKETCEMDWSDKMEAYNIDETCGRHHSQSTEVQAHPYSTTFQESASTPETRAKFTQDNLCRAQRERLASANLRVLVDCILRDTSEDLRLQCDAVNLAFGRRCEELEDARYKLHHHLHKTLREITDQEHNVAALKQAIKDKEAPLHVAQTRLYLRSHRPNMELCRDAAQFRLLSEVEELNMSLTALREKLLEAEQSLRNLEDIHMSLEKDIAAMTNSLFIDRQKCMAHRTRYPTILQLAGYQ
partner: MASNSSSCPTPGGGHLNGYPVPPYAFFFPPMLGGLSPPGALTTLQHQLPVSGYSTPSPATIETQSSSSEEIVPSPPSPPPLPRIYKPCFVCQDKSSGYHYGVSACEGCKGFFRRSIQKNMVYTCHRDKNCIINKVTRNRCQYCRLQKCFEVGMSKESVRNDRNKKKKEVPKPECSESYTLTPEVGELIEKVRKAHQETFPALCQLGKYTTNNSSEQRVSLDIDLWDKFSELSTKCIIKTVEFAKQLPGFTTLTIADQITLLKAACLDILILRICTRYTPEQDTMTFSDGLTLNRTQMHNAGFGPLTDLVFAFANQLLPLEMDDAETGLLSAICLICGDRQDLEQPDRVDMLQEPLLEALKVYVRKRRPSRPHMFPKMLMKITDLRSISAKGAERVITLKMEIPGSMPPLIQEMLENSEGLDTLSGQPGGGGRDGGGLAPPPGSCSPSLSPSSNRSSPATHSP

The variants in one assay derive from B1. The note with it: with pspc_human SFTPC.
Turning to D144G, the “effect of a mutation on the interaction” value is “with no effect”.

Variants of B1 are the subject of another assay. Conditions: with sarco_human SLN.
On to D144G, for which the “effect of a mutation on the interaction” value was “with no effect”.

Variants of B1 are the subject of a further assay. The note with it: with sc22a_human SEC22A.
As to D144G, the “effect of a mutation on the interaction” value is “with no effect”.

The next assay covers variants of B1. The note with it: with tx264_human TEX264, Q9Y6I9.
Sequence of tx264_human TEX264, Q9Y6I9 (Q9Y6I9 whole entry): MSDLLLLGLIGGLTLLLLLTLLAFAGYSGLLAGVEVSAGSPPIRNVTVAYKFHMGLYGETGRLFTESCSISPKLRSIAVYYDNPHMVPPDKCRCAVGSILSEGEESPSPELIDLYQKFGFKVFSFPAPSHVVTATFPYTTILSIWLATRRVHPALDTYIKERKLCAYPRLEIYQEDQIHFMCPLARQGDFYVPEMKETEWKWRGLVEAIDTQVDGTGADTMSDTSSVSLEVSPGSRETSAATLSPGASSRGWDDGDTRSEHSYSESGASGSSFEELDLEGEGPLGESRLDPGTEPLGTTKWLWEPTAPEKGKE
For D144G, the “effect of a mutation on the interaction” value is on record as “with no effect”.

The next assay covers variants of B2. The note with it: with myg1_human MYG1, Q9HB07.
For the variant R23H, the “effect of a mutation on the interaction” value is “with no effect”.

Variants of B3 are the subject of a further assay. Conditions: with atl4_human ADAMTSL4, Q6UY14.
With E103K, the “effect of a mutation on the interaction” value is “with no effect”. On the same count and under the same terms, for E103D the value was “with no effect”.

Variants of B4 are the subject of a further assay. Conditions: with rara_human RARA.
As to R64W, the “effect of a mutation on the interaction” value is “with no effect”. N409K: the “effect of a mutation on the interaction” value is reported as “with no effect”. As to A80V, the “effect of a mutation on the interaction” value is “disrupting interaction strength”. On to M374T, for which the “effect of a mutation on the interaction” value is reported as “with no effect”.
